We go through 51 variants from the RNAGym collection of RNA variant scans (doi:10.1101/gr.219683.116).

First the molecules themselves.
B1: mRNA-splicing (parent)
chain: AGUUGCUGCUGGGAGCUCCAGCACAGUGAAAUGGACAGAAGGGCAGAGCAA

Variants of B1 are the subject of this data set. In words: exon inclusion enrichment index; higher = more inclusion; WT1 exon 5 minigene, HEK293.
In the case of AGUUGCUGCGGGGAGCUCCAGCACAGUGAAAUGGACAGAAGGGCAGAGCAA [U10G], the “exon inclusion enrichment index” value was 1.82. Consider AGUUCACACUCGGAGCUCCAGCACAGUGAAAUGGACAGAAGGGCAGAGCAA [G5C C6A U7C G8A G11C], for which the “exon inclusion enrichment index” value came to 1.01. In the case of AGUUCUUCCAGGGAGCUCCAGCACAGUGAAAUGGACAGAAGGGCAGAGCAA [G5C C6U G8C U10A], the “exon inclusion enrichment index” value was 0.518. As to AGUUAUAUAUGGGAGCUCCAGCACAGUGAAAUGGACAGAAGGGGGGAGCAA [G5A C6U U7A G8U C9A C44G A45G], the “exon inclusion enrichment index” value turned out to be 0.0089. Consider AGUUCGCGCCGGGAGUCCCAGCACAGUGAAAUGGACAGAAGGGCAGAGCAA [G5C C6G U7C U10C C16U U17C], for which the “exon inclusion enrichment index” value was determined as 2.87. As for AGUUAUAUAUGGGAGUUCCAGCACAGUGAAAUGGACAGAAGGGCAGAGCAA [G5A C6U U7A G8U C9A C16U], the “exon inclusion enrichment index” value was 0.0512. Turning to AGUUCUUCUCGGGAGCUCCAGCACAGUGAACUGGACAGAAGGGCAGAGCAA [G5C C6U G8C C9U U10C A31C], the “exon inclusion enrichment index” value turned out to be 2.29.

As to AGUUUACACAGGGAGCUCCAGCACAGUGAAAUGGACAGAAGGGCAGAGCAA [G5U C6A U7C G8A U10A], the “exon inclusion enrichment index” value worked out at 0.0713. With AGUUCGCGCCGGGAGCUCCAGCACAGUGGAAUGGACAGAAGGGCAGAGCAA [G5C C6G U7C U10C A29G], the “exon inclusion enrichment index” value was found to be 3.72. For AGUUAUCUAUGGGAGCUCCAGCACAGUGAAAUGGACAGAAGGGCAGAGCAA [G5A C6U U7C G8U C9A], the “exon inclusion enrichment index” value was determined as 0.249. For AGUUCGCGCCGGGAGCUCCAGCACAGUGAAAUGGACAGAAGGGCUGAGCAA [G5C C6G U7C U10C A45U], the “exon inclusion enrichment index” value turned out to be 4.56. For the variant AGUUACCACCGGGAGCUCCAGCACAGUGAAAUGGACAGAAGGGUUGAGCAA [G5A U7C G8A U10C C44U A45U], the “exon inclusion enrichment index” value was 1.51. With AGUUGACGACGGGAGAGCCAGCACAGUGAAAUGGACAGAAGGGCAGAGCAA [C6A U7C C9A U10C C16A U17G], the “exon inclusion enrichment index” value came to 2.33. With AGGAACCACCGGGAGCUCCAGCACAGUGAAAUGGACAGAAGGGCAGAGCAA [U3G U4A G5A U7C G8A U10C] the figure was 2.25; with AGUUACCACCGGGAGCUCCACUACAGUGAAAUGGACAGAAGGGCAGAGCAA [G5A U7C G8A U10C G21C C22U], 2.19. On to AGUUGAAGAAGGGAGCUCCAUCACAGUGAAAUGGACAGAAGGGCAGAGCAA [C6A U7A C9A U10A G21U], for which the “exon inclusion enrichment index” value was determined as 0.507. For AGUUCGCGCCGGGAGCUCCAGCACAGUGAAUUGGACAGAAGGGCAGAGCAA [G5C C6G U7C U10C A31U], the “exon inclusion enrichment index” value came to 3.18.

On to AGUUCGCGCCGGGAGCUCUUGCACAGUGAAAUGGACAGAAGGGCAGAGCAA [G5C C6G U7C U10C C19U A20U], for which the “exon inclusion enrichment index” value was 1.48. For the variant ACCUGAAGAAGGGAGCUCCAGCACAGUGAAAUGGACAGAAGGGCAGAGCAA [G2C U3C C6A U7A C9A U10A], the “exon inclusion enrichment index” value was 0.779. AGUUCACACAGGGAGCUCCAGCACAGUGAAAUGGACAGAUCGGCAGAGCAA [G5C C6A U7C G8A U10A A40U G41C]: the “exon inclusion enrichment index” value was 0.451. AGUUAGGGAUGGGAGCUCCACCACAGUGAAAUGGACAGAAGGGCAGAGCAA [G5A C6G U7G C9A G21C]: the “exon inclusion enrichment index” value came to 0.00079. Take AGUUAUAUAUGGGCUCUCCAGCACAGUGAAAUGGACAGAAGGGCAGAGCAA [G5A C6U U7A G8U C9A A14C G15U]: the “exon inclusion enrichment index” value came to 0.0114. With AGUUGACGACGGGAGCUCCAGCACAGUGAAAUGGAUAGAAGGGCAGAGCAA [C6A U7C C9A U10C C36U] the figure was 1.34; with AGUUGCUGCUGGGAGCUCCAGCACAGUGAAAUGGGGAGAAGGGCAGAGCAA [A35G C36G], 0.00669; with AGUUAGGGAUGGGAGAUCCAGCACAGUGAAAUGGACAGAAGGGCAGAGCAA [G5A C6G U7G C9A C16A], 0.00192. AGUUCUUCUCGGGAGCUCCAGCACAGUGAAAUGGUAAGAAGGGCAGAGCAA [G5C C6U G8C C9U U10C A35U C36A]: the “exon inclusion enrichment index” value was 0.00287. As for AGUUGCUGCUGGGAGCUCCAGCACAGUGAAAUGGACAGAAGACCAGAGCAA [G42A G43C], the figure is 2.4; as for AGUUCUUCUCGGGAGCUCCAGCACAGUGAAAUGGACAGACUGGCAGAGCAA [G5C C6U G8C C9U U10C A40C G41U], 0.895; as for AGUUGACGACGGGAGCUCCAGCACAGGGAAAUGGACAGAAGGGCAGAGCAA [C6A U7C C9A U10C U27G], 2.01. AGUUUCUUUUGGGAGCUCCAGCACAGUGAAAUGGACAGAAGGGCAAUGCAA [G5U G8U C9U G46A A47U]: the “exon inclusion enrichment index” value came out at 0.164.

Consider AGUUAUAUAUGGGAGCUCCAGCACAGUGAAAUGGACAGAAGGGCAGGUCAA [G5A C6U U7A G8U C9A A47G G48U], for which the “exon inclusion enrichment index” value was 0.00228. Turning to AGUUAUAUAUGGGAGCUCCAGCACAGUGAAAAAGACAGAAGGGCAGAGCAA [G5A C6U U7A G8U C9A U32A G33A], the “exon inclusion enrichment index” value turned out to be 0.00941. For AGUUAGGGAUGGGAGCUCCAGCACAGGAAAAUGGACAGAAGGGCAGAGCAA [G5A C6G U7G C9A U27G G28A], the “exon inclusion enrichment index” value turned out to be 0.00077.

Consider AGUUAGGGAAAGGAGCUCCAGCACAGUGAAAUGGACAGAAGGGCAGAGCAA [G5A C6G U7G C9A U10A G11A], for which the “exon inclusion enrichment index” value turned out to be 0.00112. On to AGUUAGGGAUGGGAGCUCCAGCACAGUGACUUGGACAGAAGGGCAGAGCAA [G5A C6G U7G C9A A30C A31U], for which the “exon inclusion enrichment index” value is 0.00118. For the variant AGUUACCACCGGGAGCUCCAGCACAGUGAAAUGGACAGAAAUGCAGAGCAA [G5A U7C G8A U10C G41A G42U], the “exon inclusion enrichment index” value worked out at 1.8. AGUUGCUGCUGGGAGCUCCAGCACAGUGAAAUGGACAACAGGGCAGAGCAA [G38A A39C]: the “exon inclusion enrichment index” value was determined as 0.13. In the case of AGUUAGGGAUGGGAGCUCCAGCACAGUGAUAUGGACAGAAGGGCAGAGCAA [G5A C6G U7G C9A A30U], the “exon inclusion enrichment index” value amounted to 0.00076. For AGUUUCUUUUGGGAGCUCCAGCACAGUGAAAUGCGCAGAAGGGCAGAGCAA [G5U G8U C9U G34C A35G], the “exon inclusion enrichment index” value is 0.0652. As to AGUUCGCGCCGGGAGCUCCACUACAGUGAAAUGGACAGAAGGGCAGAGCAA [G5C C6G U7C U10C G21C C22U], the “exon inclusion enrichment index” value was 3.43. As for AGUUACCACCGGGAGCUCCAGCACAGUGAAAUGAACAGAAGGGCAGAGCAA [G5A U7C G8A U10C G34A], the “exon inclusion enrichment index” value is 1.51.

Regarding AGUUGACGACGGGAGCUCCAGCACAGUGAAACUGACAGAAGGGCAGAGCAA [C6A U7C C9A U10C U32C G33U], the “exon inclusion enrichment index” value was 2.94.

AGUUAUAUAUGGGAGCUCCAGCACAGUGAUUUGGACAGAAGGGCAGAGCAA [G5A C6U U7A G8U C9A A30U A31U]: the “exon inclusion enrichment index” value turned out to be 0.0488.

Take AGUUACCACCGGGAGCUCCAGCACAGUGAAAUGGAAAGAAGGGCAGAGCAA [G5A U7C G8A U10C C36A]: the “exon inclusion enrichment index” value is 1.85.

As for AGUUACUCCCGGGAGCUCCAGCACAGUGAAAUGGACAGAAGGGCAGAGCAA [G5A G8C U10C], the “exon inclusion enrichment index” value came out at 1.52. Consider AGUUCACACAGGGAGCUCCAGCACAGUGAAAUGGACAGAAGGUUAGAGCAA [G5C C6A U7C G8A U10A G43U C44U], for which the “exon inclusion enrichment index” value is 0.0172.

As for AGUUUCUUUUGGGAGCUCCAGCACAGUCUAAUGGACAGAAGGGCAGAGCAA [G5U G8U C9U G28C A29U], the “exon inclusion enrichment index” value amounted to 0.0407. In the case of AGUAUGGGAUGGGAGCUCCAGCACAGUGAAAUGGACAGAAGGGCAGAGCAA [U4A G5U C6G U7G C9A], the “exon inclusion enrichment index” value was 0.0707. AGUGAUUCUCGGGAGCUCCAGCACAGUGAAAUGGACAGAAGGGCAGAGCAA [U4G G5A C6U G8C C9U U10C]: the “exon inclusion enrichment index” value is 1.22. With AGUUCCCACCGGGAGCUCCAGCACAGUGAAAUGGACAGAAGGGCAGAGCAA [G5C U7C G8A U10C], the “exon inclusion enrichment index” value was 0.327. As for AGUUCACACAGGGAGCUCCACUACAGUGAAAUGGACAGAAGGGCAGAGCAA [G5C C6A U7C G8A U10A G21C C22U], the figure is 0.105.
